Test results reported in US20240252673A1, “ANTI-TISSUE FACTOR ANTIBODY-DRUG CONJUGATES AND THEIR USE IN THE TREATMENT OF CANCER” (priority 2017, published 2024).

What was measured:
Assay type in all cases: in vivo, human
[1] = test system: patients with relapsed, recurrent and/or metastatic cervical cancer; assay: Phase IIa single arm trial: safety and tolerability (CTCAE v4.03); conditions: 2.0 mg/kg q3w
Protocol: A Phase IIa single arm, multicenter trial investigated the efficacy, safety and tolerability of 2.0 mg/kg tisotumab vedotin in patients with relapsed, recurrent and/or metastatic cervical cancer. A total of 34 patients (n=34) were enrolled and received at least 1 dose of tisotumab vedotin. Each eligible patient was assigned to receive an intravenous (IV) infusion dose of tisotumab vedotin at a concentration of 2.0 mg/kg on day 1 of a 21-day cycle (i.e., each treatment cycle was 3 weeks (q3w)).
(§1) Lyophilized vials containing 40 mg of tisotumab vedotin were stored in a refrigerator at 2° C. to 8° C. Tisotumab vedotin was reconstituted in 4 ml of water leading to a reconstituted solution comprising 10 mg/mL tisotumab vedotin, 30 mM histidine, 88 mM sucrose, and 165 mM D-mannitol. […] The reconstituted tisotumab vedotin was diluted into a 0.9% NaCl 100 mL infusion bag according to the dose calculated for the patient to receive 2.0 mg/kg tisotumab vedotin. Intravenous infusion was completed within 24 hours after the tisotumab vedotin vial had been reconstituted. A 0.2 μm in-line filter was used for the intravenous infusion. The entire 100 mL volume from the prepared infusion bag was administered. No dead volume was provided.
A primary objective of the study was to assess safety and tolerability of tisotumab vedotin. Adverse event (AE) severity was graded according to CTCAE version 4.03. A secondary objective was preliminary evaluation of anti-tumor activity durability as assessed according to RECIST version 1.1. Tumor evaluations were performed by CT scans every six weeks.

[2] = test system: subjects with locally advanced and/or metastatic cancer of various types; assay: Phase I/II dose-escalation study: safety and tolerability, adverse events (CTCAE v4.03) occurring up to 30 days after treatment
Protocol: A first-in-human phase I/II dose-escalating study following a 3+3 dose-escalation design was conducted in order to test the safety of tisotumab vedotin in 27 subjects with locally advanced and/or metastatic cancer of various types including cervical cancer (FIG. 2). Tisotumab vedotin was administered by intravenous infusion at doses ranging from 0.3 mg/kg to 2.2 mg/kg on day 1 of a 21-day cycle for four cycles (i.e., each treatment cycle was 3 weeks). Patients with stable disease (SD) or better at the end of four cycles had the option to continue treatment with tisotumab vedotin for eight additional cycles (FIG. 2). Tumor evaluations were performed by CT scans every six weeks. In order to qualify for SD, results of the CT scan scheduled for week six needed to be SD or better. Two CT scans were performed outside the per-protocol defined window.
as §1, with “patient.” for “patient to receive 2.0 mg/kg tisotumab vedotin.”
A primary objective of the study was to assess the safety and tolerability in a mixed population of patients with specified solid tumors. Adverse event (AE) severity was graded according to Common Terminology Criteria for Adverse Events (CTCAE) version 4.03. Secondary objectives of the study included determining the pharmacokinetic (PK) profile of tisotumab vedotin and preliminary evaluation of anti-tumor activity as assessed according to Response Evaluation Criteria in Solid Tumors [RECIST] version 1.1. Dose-limiting toxicities (DLTs) were determined during the first cycle and were defined as grade≥3 events possibly related to tisotumab vedotin. […] Tumor biopsies were required at baseline for TF expression which was assessed by immunohistochemistry utilizing tisotumab. TF staining intensity was determined using the H-scoring system.
Inclusion criteria for eligible subjects included: patients with relapsed, advanced, and/or metastatic cancer who have failed available standard therapy; and measurable disease.
Exclusion criteria included known past or current coagulation defects; ongoing major bleeding; and presence of CTCAE grade≥2 peripheral neuropathy.

[3] = test system: relapsed, recurrent and/or metastatic cervical cancer; assay: Phase IIa single arm trial: anti-tumor activity per RECIST v1.1

In the case of tisotumab vedotin, the “grade 4 or grade 5 events” value ([1]; 34 patients) is reported as “no grade 4 or grade 5 events”, the “patients withdrew from treatment due to AE” value ([1]; 34 patients) is reported as 5 n and the “patients experienced conjunctivitis at grade≥3” value ([1]; after mitigation (n=19)) is reported as 5%. For the same substance, the “patients experienced conjunctivitis of any grade” value ([1]; after mitigation (n=19)) was 32%, the “patients experienced conjunctivitis of any grade” value ([1]; prior to mitigation (n=15)) was 73% and the “safety profile, overall conclusion” value ([1]; cervical cancer cohort) was “manageable safety profile”. The “AE leading to discontinuation” value ([2]; 0.3 mg/kg (n = 3)) was 0 n, the “AE leading to discontinuation” value ([2]; 0.6 mg/kg (n = 3)) was 0 n and the “AE leading to discontinuation” value ([2]; 0.9 mg/kg (n = 3)) was 0 n. The “AE with outcome of death” value ([2]; 0.9 mg/kg (n = 3)) was 0 n, the “Serious AE” value ([2]; 0.9 mg/kg (n = 3)) was 0 n and the “AE leading to discontinuation” value ([2]; 1.2 mg/kg (n = 3)) was 0 n. The “AE with outcome of death” value ([2]; 1.2 mg/kg (n = 3)) was 0 n, the “AE leading to discontinuation” value ([2]; 1.5 mg/kg (n = 3)) was 0 n and the “AE with outcome of death” value ([2]; 1.5 mg/kg (n = 3)) was 0 n. The “AE with outcome of death” value ([2]; 1.8 mg/kg (n = 3)) was 0 n, the “AE leading to discontinuation” value ([2]; 2.0 mg/kg (n = 3)) was 0 n and the “AE with outcome of death” value ([2]; 2.0 mg/kg (n = 3)) was 0 n. The “AE with outcome of death” value ([2]; 2.2 mg/kg (n = 6)) was 0 n, the “DLTs (diabetes mellitus type 2, mucositis, neutropenic fever, all grade 3)” value ([2]; 2.2 mg/kg dose cohort, in three patients, first cycle) was “Three” and the “Maximum tolerated dose (MTD)” value ([2]; IV, day 1 of 21-day cycle) was 2.0 mg/kg. The tolerability ([2]; Patient 2, cervical cancer, 1.2 mg/kg) was “well tolerated and no severe AEs were reported”, the “discontinued due to AE: grade 1 pneumonitis” value ([2]; all 27 patients) was 1 n and the “discontinued due to AE: grade 2 peripheral swelling and grade 3 pain in extremity” value ([2]; all 27 patients) was “one”. The “discontinued due to AE: grade 3 Guillain-Barre syndrome” value ([2]; all 27 patients) was 1 n, the “discontinued due to AE: grade 3 abdominal pain” value ([2]; all 27 patients) was 2 n and the “discontinued due to AE: grade 3 diabetes mellitus” value ([2]; all 27 patients) was 1 n. The “discontinued due to AE: grade 3 fatigue” value ([2]; all 27 patients) was 1 n, the “grade 4 events” value ([2]; all 27 patients) was “no grade 4 events” and the “grade≥3 treatment-related AE: abdominal pain” value ([2]; all 27 patients) was 3 n. The “grade≥3 treatment-related AE: anemia” value ([2]; all 27 patients) was 4 n, the “grade≥3 treatment-related AE: fatigue” value ([2]; all 27 patients) was 4 n and the “grade≥3 treatment-related AE: hyponatraemia” value ([2]; all 27 patients) was 3 n. The “patients experienced grade≥3 treatment-related AEs” value ([2]; all 27 patients) was 19 patients, the “treatment-related AE: anaemia” value ([2]; all 27 patients) was 41% and the “treatment-related AE: epitaxis” value ([2]; all 27 patients) was 48%. For the same substance, the “treatment-related AE: fatigue” value ([2]; all 27 patients) was 48%, the “changes in coagulation parameters” value ([2]; all doses) was “No significant changes” and the “patients withdrew from treatment due to AEs” value ([2]; all doses, 27 patients) was 15%. The “patients withdrew from treatment due to death” value ([2]; all doses, 27 patients) was 4%, the “patients withdrew from treatment due to dose-limiting toxicities (DLTs)” value ([2]; all doses, 27 patients) was 4% and the mean prothrombin time ([2]; by the end of the study (n=17), baseline 11.5 seconds (n=18)) was 11.7 s. For the same substance, the “mean activated partial thromboplastin time” value ([2]; by the end of the study (n=23), baseline 28.2 seconds (n=25)) was 27.1 s, the “Median DoR” value ([3]; 2.0 mg/kg q3w, N = 34) was 8.3 months and the “Objective response rate (ORR)” value ([3]; 2.0 mg/kg q3w, N = 34) was 11 n. For the same substance, the “DCR (CR + PR + SD)” value ([3]; 2.0 mg/kg q3w, N = 34, clinical benefit after 12 weeks) was 17 n, the “ORR, combined unconfirmed + confirmed” value ([3]; expanded cohort, all efficacy-evaluable patients, N 51) was 16 N and the “ORR, combined unconfirmed + confirmed” value ([3]; expanded cohort, all efficacy-evaluable patients, N 51, 95% CI 19-46) was 31%. For the same substance, the “ORR, combined unconfirmed + confirmed” value ([3]; histology Adenocarcinoma, N 18) was 4 N, the “ORR, combined unconfirmed + confirmed” value ([3]; histology Adenocarcinoma, N 18, 95% CI 6-48) was 22% and the “ORR, combined unconfirmed + confirmed” value ([3]; histology Adenosquamous, N 4) was 2 N. The “ORR, combined unconfirmed + confirmed” value ([3]; histology Adenosquamous, N 4, 95% CI 7-93) was 50%, the “ORR, combined unconfirmed + confirmed” value ([3]; histology Other, N 2) was 1 N and the “ORR, combined unconfirmed + confirmed” value ([3]; histology Other, N 2, 95% CI 1-99) was 50%. The “ORR, combined unconfirmed + confirmed” value ([3]; histology Squamous, N 27) was 9 N, the “ORR, combined unconfirmed + confirmed” value ([3]; histology Squamous, N 27, 95% CI 17-54) was 33% and the “ORR, combined unconfirmed + confirmed” value ([3]; prior GOG 240 regimen No, N 14) was 4 N. For the same substance, the “ORR, combined unconfirmed + confirmed” value ([3]; prior GOG 240 regimen No, N 14, 95% CI 8-58) was 29%, the “ORR, combined unconfirmed + confirmed” value ([3]; prior GOG 240 regimen Yes, N 37) was 12 N and the “ORR, combined unconfirmed + confirmed” value ([3]; prior GOG 240 regimen Yes, N 37, 95% CI 18-50) was 32%. The “ORR, combined unconfirmed + confirmed” value ([3]; prior bevacizumab No, N 11) was 4 N, the “ORR, combined unconfirmed + confirmed” value ([3]; prior bevacizumab No, N 11, 95% CI 11-69) was 36% and the “ORR, combined unconfirmed + confirmed” value ([3]; prior bevacizumab Yes, N 40) was 12 N. For the same substance, the “ORR, combined unconfirmed + confirmed” value ([3]; prior bevacizumab Yes, N 40, 95% CI 17-47) was 30%, the “ORR, combined unconfirmed + confirmed” value ([3]; prior lines of systemic therapy 1, N 23) was 8 N and the “ORR, combined unconfirmed + confirmed” value ([3]; prior lines of systemic therapy 1, N 23, 95% CI 16-57) was 35%. For the same substance, the “ORR, combined unconfirmed + confirmed” value ([3]; prior lines of systemic therapy 2, N 17) was 6 N, the “ORR, combined unconfirmed + confirmed” value ([3]; prior lines of systemic therapy 2, N 17, 95% CI 14-62) was 35% and the “ORR, combined unconfirmed + confirmed” value ([3]; prior lines of systemic therapy 3-4, N 11) was 2 N. For the same substance, the “ORR, combined unconfirmed + confirmed” value ([3]; prior lines of systemic therapy 3-4, N 11, 95% CI 2-52) was 18%, the “ORR, combined unconfirmed + confirmed” value ([3]; prior taxane No, N 3) was 1 N and the “ORR, combined unconfirmed + confirmed” value ([3]; prior taxane No, N 3, 95% CI 1-91) was 33%. The “ORR, combined unconfirmed + confirmed” value ([3]; prior taxane Yes, N 48) was 15 N and the “ORR, combined unconfirmed + confirmed” value ([3]; prior taxane Yes, N 48, 95% CI 19-46) was 31%.
